PMC12931730 (2025)

Assays:
[1] = biological target: T1, lysin motif (LysM) peptidoglycan-binding domain-containing protein (LPDP), recombinant (Staphylococcus lentus, UniProt A0A8I0UA09); test: MST
[2] = biological target: T1, lysin motif (LysM) …; test: MST; in the presence of tubuloside B

B1: PDZ and LIM domain 3 (PDLIM3) (natural protein)
chain: MPQNVVLPGPAPWGFRLSGGIDFNQPLVITRITPGSKAAAANLCPGDVILAIDGFGTESMTHADAQDRIKAASYQLCLKIDRAETRLWSPQVSEDGKAHPFKINLEAEPQEFKPIGTAHNRRAQPFVAAANIDDKRQVVSASYNSPIGLYSTSNIQDALHGQLRGLIPGSLQNEPTASVPPQSDVYRMLHDNRDDPAAPRQSGSFRVLQDLVNDGPDDRPAGTRSVRAPVTKVHGGAGSAQRMPLCDKCGSGIVGAVVKARDKYRHPECFVCADCNLNLKQKGYFFVEGELYCETHARARTRPPEGYDTVTLYPKA
modifications: fluorescently labeled with the Monolith His-Tag Labeling Kit (in the microscale thermophoresis only)
Kd [1]: 0.93 µM | Kd [2]: 4.55 µM
